Test results reported in the supplement of paper PMC10567573.

B1: CDS2 (parent)
chain: IHSIALSTFASLIGPFGGFFASGF

Variants of: B1
Assay: protein stability index of a GFP-peptide fusion (GPS, HEK-293T) (PSI 1-6); higher = more stable
Details: c terminus: a fixed tail appended
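Further: lentivirally expressed fusions sorted by FACS into six bins by GFP to DsRed ratio, PSI derived from sequencing read proportions per bin multiplied by bin number.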

Variant | protein stability index
IHSIALSTFASLIGPFGGFTASGF [F20T] | 3.03
IHSIALSTFASLIGPFGGFYASGF [F20Y] | 1.92
IHSIALSTFASLIGPFGGFNASGF [F20N] | 2.68
IHSIALSTFASLIGPFGGFIASGF [F20I] | 2.13
IHSIALSTFASLIGPFGGFHASGF [F20H] | 2.66
IHSIALSTFASLIGPFGGFSASGF [F20S] | 2.52
IHSIALSTFASLIGPFGGFMASGF [F20M] | 2.88
IHSIALSTFASLIGPFGGFRASGF [F20R] | 2.86
IHSIALSTFASLIGPFGGFLASGF [F20L] | 2.98
IHSIALSTFAYLIGPFGGFFASGF [S11Y] | 4.15
IHSIALSTFARLIGPFGGFFASGF [S11R] | 2.81
IHSIALSTFAWLIGPFGGFFASGF [S11W] | 5.33
IHSIALSTFANLIGPFGGFFASGF [S11N] | 2.33
IHSIALSTFAHLIGPFGGFFASGF [S11H] | 2.75
IHSIALSTFALLIGPFGGFFASGF [S11L] | 2.8
IHSIALSTFACLIGPFGGFFASGF [S11C] | 2.7
IHSIALSTFAKLIGPFGGFFASGF [S11K] | 3.22
IHSIALSTFAFLIGPFGGFFASGF [S11F] | 3.22
HHSIALSTFASLIGPFGGFFASGF [I1H] | 2.21
EHSIALSTFASLIGPFGGFFASGF [I1E] | 4.34
CHSIALSTFASLIGPFGGFFASGF [I1C] | 3.03
THSIALSTFASLIGPFGGFFASGF [I1T] | 3.44
SHSIALSTFASLIGPFGGFFASGF [I1S] | 2.57
AHSIALSTFASLIGPFGGFFASGF [I1A] | 3.5

Variant | protein stability index
DHSIALSTFASLIGPFGGFFASGF [I1D] | 1.79
VHSIALSTFASLIGPFGGFFASGF [I1V] | 2.61
NHSIALSTFASLIGPFGGFFASGF [I1N] | 2.63
LHSIALSTFASLIGPFGGFFASGF [I1L] | 2.63
WHSIALSTFASLIGPFGGFFASGF [I1W] | 3.6
IHSIALSTFASLIGMFGGFFASGF [P15M] | 3.79
IHSIALSTFASLIGLFGGFFASGF [P15L] | 4.3
IHSIALSTFASLIGQFGGFFASGF [P15Q] | 3.43
IHSIALSTFASLIGDFGGFFASGF [P15D] | 3.92
IHSIALSTFASLIGEFGGFFASGF [P15E] | 3.88
IHSIALSTFASLIGNFGGFFASGF [P15N] | 2.82
IHSIALSTFASLIGSFGGFFASGF [P15S] | 2.34
IHSIALSTFASLIGTFGGFFASGF [P15T] | 3.98
IHSIALSTFASLIGRFGGFFASGF [P15R] | 1.88
IHSIALSTFASLIGCFGGFFASGF [P15C] | 2.62
IHSIALSTFASLWGPFGGFFASGF [I13W] | 3.97
IHSIALSTFASLPGPFGGFFASGF [I13P] | 2.92
IHSIALSTFASLKGPFGGFFASGF [I13K] | 2.49
IHSIALSTFASLFGPFGGFFASGF [I13F] | 3.52
IHSIALSTFASLAGPFGGFFASGF [I13A] | 2.25
IHSIALSTFASLEGPFGGFFASGF [I13E] | 2.6
IHSIALSTFASLIGPMGGFFASGF [F16M] | 3.82
IHSIALSTFASLIGPQGGFFASGF [F16Q] | 3.71
IHSIALSTFASLIGPGGGFFASGF [F16G] | 4.52

Variant | protein stability index
IHSIALSTFASLIGPYGGFFASGF [F16Y] | 2.37
IHSIALSTFASLIGPAGGFFASGF [F16A] | 3.6
IHSIALSTFASLIGPLGGFFASGF [F16L] | 1.91
IHSIALSTFASLIGPRGGFFASGF [F16R] | 2.29
IHSIALSTFASLIGPHGGFFASGF [F16H] | 2.84
IHSIALSTFASLIGPVGGFFASGF [F16V] | 2.96
IHSIALSTFASLIGPPGGFFASGF [F16P] | 2.02
IHSIALSTFASLIGPWGGFFASGF [F16W] | 2.49
IHSIAESTFASLIGPFGGFFASGF [L6E] | 4.38
IHSIARSTFASLIGPFGGFFASGF [L6R] | 1.67
IHSIAMSTFASLIGPFGGFFASGF [L6M] | 4.1
IHSIAPSTFASLIGPFGGFFASGF [L6P] | 2.23
IHSIACSTFASLIGPFGGFFASGF [L6C] | 2.06
IHSIAWSTFASLIGPFGGFFASGF [L6W] | 2.43
IHSIAKSTFASLIGPFGGFFASGF [L6K] | 3.48
IHSIALSTFASLIGPFGGFFASGI [F24I] | 2.91
IHSIALSTFASLIGPFGGFFASGQ [F24Q] | 2.45
IHSIALSTFASLIGPFGGFFASGC [F24C] | 4.83
IHSIALSTFASLIGPFGGFFASGN [F24N] | 3.11
IHSIALSTFASLIGPFGLFFASGF [G18L] | 2.48
IHSIALSTFASLIGPFGAFFASGF [G18A] | 2.37
IHSIALSTFASLIGPFGCFFASGF [G18C] | 2.46
IHSIALSTFASLIGPFGVFFASGF [G18V] | 3.83
IHSIALSTFASLIGPFGHFFASGF [G18H] | 2.38

Variant | protein stability index
IHSIALSTFASLIGPFGSFFASGF [G18S] | 2.36
IHSIALSTFASLIGPFGKFFASGF [G18K] | 2.86
IHIIALSTFASLIGPFGGFFASGF [S3I] | 3.44
IHVIALSTFASLIGPFGGFFASGF [S3V] | 3.02
IHTIALSTFASLIGPFGGFFASGF [S3T] | 2.8
IHQIALSTFASLIGPFGGFFASGF [S3Q] | 2.4
IHLIALSTFASLIGPFGGFFASGF [S3L] | 4.15
IHYIALSTFASLIGPFGGFFASGF [S3Y] | 2.06
IHSIALSTFASLIGPFGGFFARGF [S22R] | 3.24
IHSIALSTFASLIGPFGGFFAIGF [S22I] | 2.2
IHSIALSTFASLIGPFGGFFAHGF [S22H] | 2.03
IHSIALSTFASLIGPFGGFFAWGF [S22W] | 2.44
IHSIALSTFASLIGPFGGFFALGF [S22L] | 2.7
IHSIALSTFASLIGPFGGFFAMGF [S22M] | 3.08
IHSIALSTFASLIGPFGGFFAKGF [S22K] | 1.71
IHSIALSTFASLIGPFGGFFAFGF [S22F] | 3.51
IHSIALSTFASLIGPFGGFFAEGF [S22E] | 2.95
IHSIALSTFASLIGPFGGFFADGF [S22D] | 2.53
IHSIALSTFASLIGPFGGFFATGF [S22T] | 2.96
IHSIKLSTFASLIGPFGGFFASGF [A5K] | 3.47
IHSIQLSTFASLIGPFGGFFASGF [A5Q] | 3.47
IHSIFLSTFASLIGPFGGFFASGF [A5F] | 3.17
